# Test results: patent publication US20050282743A1, “Molecular interactions in cells” (Arbor Vita Corporation, priority 2001, published 2005)
# Ends that are not written are not given here. Peptide text beside a SMILES is read from it. * marks the point of attachment. Biotin = O=C1N[C@H]2[C@H](CS[C@H]2CCCCC(=O)*)N1
# Target: T1, PDZ protein (GST-PDZ fusion) (Homo sapiens, UniProt Q5TCQ9)
# T1 construct: made in house; host or cells: E. coli (DH5alpha, BL21 or JM109)
# T1 sequence (Q5TCQ9 1-1481): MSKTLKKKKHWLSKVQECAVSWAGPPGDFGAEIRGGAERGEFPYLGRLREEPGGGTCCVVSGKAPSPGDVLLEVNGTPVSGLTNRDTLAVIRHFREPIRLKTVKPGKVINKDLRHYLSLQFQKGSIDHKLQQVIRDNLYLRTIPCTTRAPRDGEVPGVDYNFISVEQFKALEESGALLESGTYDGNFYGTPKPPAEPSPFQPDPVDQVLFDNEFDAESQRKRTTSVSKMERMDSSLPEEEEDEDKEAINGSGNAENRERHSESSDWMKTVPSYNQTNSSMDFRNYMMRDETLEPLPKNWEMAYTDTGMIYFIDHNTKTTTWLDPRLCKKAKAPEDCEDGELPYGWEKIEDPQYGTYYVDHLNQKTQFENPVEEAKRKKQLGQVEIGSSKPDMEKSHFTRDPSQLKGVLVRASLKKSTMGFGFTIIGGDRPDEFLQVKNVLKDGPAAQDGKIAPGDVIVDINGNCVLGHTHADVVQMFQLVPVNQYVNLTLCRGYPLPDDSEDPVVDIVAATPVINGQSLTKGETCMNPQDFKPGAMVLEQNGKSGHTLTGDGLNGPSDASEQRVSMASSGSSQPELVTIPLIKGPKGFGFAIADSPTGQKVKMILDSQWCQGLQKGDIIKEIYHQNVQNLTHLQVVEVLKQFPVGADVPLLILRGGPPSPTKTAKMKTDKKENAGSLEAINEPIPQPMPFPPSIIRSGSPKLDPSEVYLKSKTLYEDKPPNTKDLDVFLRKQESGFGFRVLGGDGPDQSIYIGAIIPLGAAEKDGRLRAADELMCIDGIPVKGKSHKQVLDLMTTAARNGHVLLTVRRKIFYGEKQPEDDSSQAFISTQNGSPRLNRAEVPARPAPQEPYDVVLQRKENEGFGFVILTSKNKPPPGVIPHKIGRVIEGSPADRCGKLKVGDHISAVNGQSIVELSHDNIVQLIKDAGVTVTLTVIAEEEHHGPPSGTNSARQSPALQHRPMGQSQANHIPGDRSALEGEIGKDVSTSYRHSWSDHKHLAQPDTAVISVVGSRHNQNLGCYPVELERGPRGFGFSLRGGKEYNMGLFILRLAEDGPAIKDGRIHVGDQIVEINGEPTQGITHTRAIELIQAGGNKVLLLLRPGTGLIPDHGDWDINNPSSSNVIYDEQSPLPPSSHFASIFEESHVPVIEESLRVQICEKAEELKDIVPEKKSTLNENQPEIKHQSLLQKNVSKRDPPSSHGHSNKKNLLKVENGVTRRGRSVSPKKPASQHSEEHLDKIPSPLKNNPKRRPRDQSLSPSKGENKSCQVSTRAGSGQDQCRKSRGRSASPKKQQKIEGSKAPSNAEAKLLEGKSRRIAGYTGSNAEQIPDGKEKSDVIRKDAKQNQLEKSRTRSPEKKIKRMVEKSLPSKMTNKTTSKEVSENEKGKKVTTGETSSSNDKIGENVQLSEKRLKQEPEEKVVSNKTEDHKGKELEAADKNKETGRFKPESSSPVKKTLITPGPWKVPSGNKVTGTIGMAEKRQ
# Assay: G' assay (10 uM PL peptide), results of TABLE 7 and TABLE 12
# Type: binding
# Outline: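 Biotinylated PL peptides at 10 uM (vs 20 uM in G^0 assay) bound to GST-PDZ fusions; PDZ protein at 5 ug/ml unless another concentration listed. Bound peptide read as A450 nm, classified 0–5 (0 = A450 0; 5 = A450 >4 repeated).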
"Classification (PDZ KIAA1634, PDZ Domain 2)","Classification (PDZ KIAA1634, PDZ Domain 1)","Classification (PDZ KIAA1634, PDZ Domain 5)",Compound,"Classification (PDZ KIAA1634, PDZ Domain 4)"
3 (A450 nm 2-3),,,CC[C@H](C)[C@H](NC(=O)[C@H](Cc1c[nH]cn1)NC(=O)[C@H](C)NC(=O)[C@H](C)NC(=O)[C@H](CO)NC(=O)[C@@H]1CCCN1C(=O)[C@H](CCCNC(=N)N)NC(=O)[C@H](CC(=O)O)NC(=O)[C@H](CCCCN)NC(=O)[C@@H]1CCCN1C(=O)[C@H](CC(=O)O)NC(=O)[C@H](CCC(=O)O)NC(=O)CCCC[C@@H]1SC[C@@H]2NC(=O)N[C@@H]21)C(=O)N[C@H](C(=O)N[C@@H](CCC(=O)O)C(=O)N[C@@H](C)C(=O)N[C@@H](CC(C)C)C(=O)N[C@@H](CCC(=O)O)C(=O)N[C@H](C(=O)N[C@@H](CC(=O)O)C(=O)N[C@H](C(=O)O)C(C)C)[C@@H](C)O)C(C)C [PDZ-binding kinase (PBK)] (Biotin-EDPKDRPSAAHIVEALETDV-OH; C-terminus assumed),
,,5 (A450 nm of 4 more than 2× repeated),CC(C)C[C@H](NC(=O)[C@H](CC(=O)O)NC(=O)[C@H](CO)NC(=O)[C@H](CCC(=O)O)NC(=O)CNC(=O)[C@H](Cc1ccc(O)cc1)NC(=O)[C@H](CC(C)C)NC(=O)[C@H](C)NC(=O)[C@H](CO)NC(=O)[C@H](CO)NC(=O)[C@H](Cc1ccccc1)NC(=O)[C@H](C)NC(=O)[C@H](C)NC(=O)[C@H](Cc1ccc(O)cc1)NC(=O)[C@H](CC(=O)O)NC(=O)[C@H](CC(C)C)NC(=O)[C@H](C)NC(=O)CNC(=O)[C@@H]1CCCN1C(=O)[C@@H](NC(=O)CCCC[C@@H]1SC[C@@H]2NC(=O)N[C@@H]21)C(C)C)C(=O)O [a-actinin 2] (Biotin-VPGALDYAAFSSALYGESDL-OH; C-terminus assumed),
,1 (A450 nm 0-1),1 (A450 nm 0-1),ARHRVTSYTSSSVNVSSNL (Biotin-ARHRVTSYTSSSVNVSSNL) [IL-8RB],
,5 (A450 nm of 4 more than 2× repeated),2 (A450 nm 1-2),ELLQFCRTPNPALKNGQYWV (Biotin-ELLQFCRTPNPALKNGQYWV),
,4 (A450 nm 3-4),,GGGGGSGGGGGSGIESVKI [GLUR2 (glutamate receptor 2-modified)],
,,3 (A450 nm 2-3),PYSELNYETSHYPASPDSWV (Biotin-PYSELNYETSHYPASPDSWV) [catenin - delta 2],
,1 (A450 nm 0-1),,RNIEEVYVGGKQVVPFSSSV (Biotin-RNIEEVYVGGKQVVPFSSSV) [Nedasin (s-form)],
1 (A450 nm 0-1),,,SLKPGTVLPPPPYRHRNTVV (Biotin-SLKPGTVLPPPPYRHRNTVV) [ErbB-4 receptor],
3 (A450 nm 2-3),5 (A450 nm of 4 more than 2× repeated),1 (A450 nm 0-1),TQGFPGPATWRRISSLESEV,1 (A450 nm 0-1)
,,1 (A450 nm 0-1),VHDAESSDEDGYDWGPATDL (Biotin-VHDAESSDEDGYDWGPATDL) [zona occludens 3 (ZO-3)],

# More lines, now with the values behind:
Compound,"Classification (PDZ KIAA1634, PDZ Domain 2)","Classification (PDZ KIAA1634, PDZ Domain 1)","Classification (PDZ KIAA1634, PDZ Domain 5)","Classification (PDZ KIAA1634, PDZ Domain 4)"
CC[C@H](C)[C@H](NC(=O)[C@H](CCC(N)=O)NC(=O)[C@@H](NC(=O)[C@H](Cc1c[nH]cn1)NC(=O)[C@H](CCC(N)=O)NC(=O)[C@H](CC(=O)O)NC(=O)[C@H](CCC(=O)O)NC(=O)[C@H](CC(=O)O)NC(=O)[C@H](Cc1ccccc1)NC(=O)[C@@H]1CCCN1C(=O)[C@H](CCC(=O)O)NC(=O)[C@H](CC(N)=O)NC(=O)[C@H](CCC(=O)O)NC(=O)[C@@H]1CCCN1C(=O)[C@H](CC(=O)O)NC(=O)[C@H](CO)NC(=O)[C@H](CC(=O)O)NC(=O)CCCC[C@@H]1SC[C@@H]2NC(=O)N[C@@H]21)[C@@H](C)O)C(=O)N[C@H](C(=O)N[C@@H](CCCCN)C(=O)N[C@H](C(=O)O)C(C)C)[C@@H](C)O [PTEN],5 (A450 nm of 4 more than 2× repeated),,,
CC[C@H](C)[C@H](NC(=O)[C@H](CCC(N)=O)NC(=O)CCCC[C@@H]1SC[C@@H]2NC(=O)N[C@@H]21)C(=O)N[C@@H](CO)C(=O)N1CCC[C@H]1C(=O)NCC(=O)NCC(=O)N[C@@H](CC(C)C)C(=O)N[C@@H](CCC(=O)O)C(=O)N1CCC[C@H]1C(=O)N1CCC[C@H]1C(=O)N[C@@H](CO)C(=O)N[C@@H](CCC(=O)O)C(=O)N[C@@H](CCCCN)C(=O)N[C@@H](Cc1c[nH]cn1)C(=O)N[C@@H](Cc1ccccc1)C(=O)N[C@@H](CCCNC(=N)N)C(=O)N[C@@H](CCC(=O)O)C(=O)N[C@H](C(=O)N[C@@H](CCC(=O)O)C(=O)N[C@H](C(=O)O)C(C)C)[C@@H](C)O [Tax],2 (A450 nm 1-2),5 (A450 nm of 4 more than 2× repeated),1 (A450 nm 0-1),2 (A450 nm 1-2)
ALVLIAFCIIRRRPSAYQAL (Biotin-ALVLIAFCIIRRRPSAYQAL) [CD68],,2 (A450 nm 1-2),,
APC—adenomatous polyposis coli protein (ESSGTQSPKRHSGSYLVTSV),1 (A450 nm 0-1),1 (A450 nm 0-1),,
CKR5_HUMAN (ERASSVYTRSTGEQEISVGL),,1 (A450 nm 0-1),,
ISGTPTSTMVHGMTSSSSVV (Biotin-ISGTPTSTMVHGMTSSSSVV) [Clasp-2],1 (A450 nm 0-1),1 (A450 nm 0-1),,
LASKSAEEGKQIPDSLSTDL (Biotin-LASKSAEEGKQIPDSLSTDL) [Dock2],,,1 (A450 nm 0-1),
QATSRNGHSARQHVVADTEL (Biotin-QATSRNGHSARQHVVADTEL) [CD34],,,1 (A450 nm 0-1),
